One series concerns SNB-78. The series can be described thus: Clonogenic assay with CR011-vcMMAE. Format: cell-based, human. The procedure:
(§1) Cells were plated in 96-well plates and allowed to recover overnight. […] The cells were then transferred into 6-well plates and allowed to form colonies. Colonies were stained with Giemsa stain (Sigma) and counted. The surviving cell fractions were calculated based upon the ratio of the treated sample and the untreated control. The results were expressed as a percentage of control using GraphPad Prism Version 4 software.

For the next series, the system named is XF-498. Put plainly: Clonogenic assay with CR011-vcMMAE. Format: cell-based, human. The procedure: as §1
Series [1] in a line: Pharmacokinetics of CR011-vcMMAE after intravenous administration (sandwich ELISA of antibody in serum). Format: in vivo, athymic mice. Particulars: for A (pre-exponential constant for alpha phase) / AUC (total area under the curve from 0 to infinity) / Alpha (exponential rate constant for alpha phase) / Alpha-Half Life / B (pre-exponential constant for beta phase) / Beta (exponential rate constant for beta phase) / Beta-Half Life / Cl (total or systemic clearance) / MRT (mean residence time) / Volume (volume of central compartment) / Vss (steady-state volume of distribution): athymic mice, i.v. On the procedure:
The concentration-time pattern was bi-phasic. […] Nevertheless, the compound disappeared very slowly from the peripheral blood (T1/2β=10.3 days) with serum concentrations of […] and 10 μg/mL remaining in the blood for 6 weeks after dosing.
(In general: An ELISA detects its analyte on a solid surface through an enzyme-linked reagent.)

The next series deals with A2058. Put plainly: Clonogenic assay with 1.15.1-AE. Format: cell-based, human. On the procedure:
(§2) Melanoma cell lines were plated onto flat bottom 96-well tissue culture plates (Becton Dickinson, Franklin Lakes, N.J., USA). On day 2 or when cells reach ˜25% confluency, various concentrations of unconjugated and Auristatin E-conjugated 1.15.1 were added to cells. MAb 2.6.2-AE was also used as a conjugated isotype control in this study. On day 5, the cells were trypsinized, transferred to 6-well tissue culture plates and incubated at 37° C. Plates were examined daily. On days 8-10, all plates were Giemsa stained and colonies on the plates were counted.

A further series relates to MEWO. Put plainly: Clonogenic assay with 1.15.1-AE. It counts as cell-based, human. On the procedure: as §2
The next series deals with HT144. Put plainly: Clonogenic assay with 1.15.1-AE. Format: cell-based, human. On the procedure: as §2
Another series deals with HEMNLP. The series can be described thus: Clonogenic assay with 1.15.1-AE. Format: cell-based, human. On the procedure: as §2
The subject of the next series is M14. The series can be described thus: Clonogenic assay with 1.15.1-AE. It counts as cell-based, human. On the procedure: as §2
The subject of the next series is LOXIMVI. Put plainly: Clonogenic assay with 1.15.1-AE. It counts as cell-based, human. The procedure:
as §2

For another series, the system named is MOLT-4. Put plainly: Clonogenic assay (methylcellulose) with 1.15.1-AE. It counts as cell-based, human. The procedure: (§3) Lymphoma or leukemia cell lines were mixed with methylcellulose base media (R&D Systems, USA) and in various concentrations of unconjugated and Auristatin E-conjugated 1.15.1 antibody before plating onto 6-well tissue culture plates (Becton Dickinson, Franklin Lakes, N.J., USA). […] Plates were incubated at 37° C. and examined daily. On days 14-18, colonies on the plates were counted.

The test system of another series is DEL. Put plainly: Clonogenic assay (methylcellulose) with 1.15.1-AE. It counts as cell-based, human. On the procedure:
as §3

The subject of the next series is Jurkat. The series can be described thus: Clonogenic assay (methylcellulose) with 1.15.1-AE. Format: cell-based, human. The procedure: as §3
Another series has as its system SU-DHL-1. Put plainly: Clonogenic assay (methylcellulose) with 1.15.1-AE. Format: cell-based, human. On the procedure:
as §3

A further series relates to CCRF-CEM. The series can be described thus: Clonogenic assay (methylcellulose) with 1.15.1-AE. It counts as cell-based, human. The procedure:
as §3

The next series deals with Karpas 299. Put plainly: Clonogenic assay (methylcellulose) with 1.15.1-AE. It counts as cell-based, human. The procedure: as §3
Another series deals with PL-21. Put plainly: Clonogenic assay (methylcellulose) with 1.15.1-AE. It counts as cell-based, human. The procedure: as §3
Another series has as its system SUP-M2. The series can be described thus: Clonogenic assay (methylcellulose) with 1.15.1-AE. Format: cell-based, human. On the procedure: as §3
A further series relates to KG-1. The series can be described thus: Clonogenic assay (methylcellulose) with 1.15.1-AE. It counts as cell-based, human. The procedure:
as §3

For another series, the target named is T1, GPNMB (Homo sapiens, UniProt Q14956).
T1 construct: we cloned the human CG56972 extracellular domain (ECD; aa 23-480); made in house; host or cells: HEK 293 cells
T1 sequence (Q14956 23-492): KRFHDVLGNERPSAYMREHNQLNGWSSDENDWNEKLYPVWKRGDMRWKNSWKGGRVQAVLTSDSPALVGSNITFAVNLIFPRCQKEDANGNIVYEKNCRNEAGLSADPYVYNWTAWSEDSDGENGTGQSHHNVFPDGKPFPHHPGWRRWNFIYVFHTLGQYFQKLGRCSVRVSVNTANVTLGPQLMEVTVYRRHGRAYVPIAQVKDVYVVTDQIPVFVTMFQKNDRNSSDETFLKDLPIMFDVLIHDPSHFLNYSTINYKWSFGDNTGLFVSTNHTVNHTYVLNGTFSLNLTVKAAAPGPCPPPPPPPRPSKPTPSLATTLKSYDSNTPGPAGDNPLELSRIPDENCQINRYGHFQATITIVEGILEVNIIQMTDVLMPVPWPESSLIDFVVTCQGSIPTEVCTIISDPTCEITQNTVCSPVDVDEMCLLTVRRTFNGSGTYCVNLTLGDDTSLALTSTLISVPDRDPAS
Put plainly: BiaCore 2000 analysis of hybridoma supernatants binding to GPNMB. On the procedure:
Certain Hybridoma cell supernatants (29) were analyzed for binding to GPNMB by BiaCore® 2000 biosensor equipped with a research-grade CM5 sensor chip. A 1:25 dilution of cell supernatant was passed over a protein A surface for 5 min followed by washing the surface for 10 mins. Subsequently, GPNMB was injected for 90 sec. over the surface at a concentration of 880 nM followed by dissociation. Double-referenced binding data were obtained by subtracting the signal from a control flow cell and subtracting the baseline drift of a buffer injected just prior to the antigen injection. GPNMB binding data for each mAb was normalized for the amount of mAb captured on each surface. Normalized, drift corrected responses were also measured. The sensorgrams were fit to a simple 1:1 kinetic model.
For orientation: Surface plasmon resonance follows binding to a sensor surface in real time, without labels.

[2] abbreviates: mAb captured on protein A, GPNMB at 880 nM, 1:1 kinetic model.

Consider “CR011-vcMMAE: CR011 conjugated to monomethyl auristatin E through a protease cleavable valine-citrulline linker; approx. 4 drugs per antibody”, for which the half-maximal inhibitory concentration (IC50) (usually the point on the concentration scale where inhibition reaches its midpoint) in the series with SNB-78 was around 0.45 µg/mL; in the series with XF-498, “approximately 215 ng/mL”. The T1/2β in series [1] (1 or 10 mg/kg intravenously) is 10.3 days. The “A (pre-exponential constant for alpha phase)” value was 8.97 µg/mL in series [1] (1 mg/kg) and 74.6 µg/mL in [1] (10 mg/kg). Further, the “AUC (total area under the curve from 0 to infinity)” value in series [1] (1 mg/kg) is 3712 µg·h/mL; in [1] (10 mg/kg), 41210 µg·h/mL. Besides, the “Alpha (exponential rate constant for alpha phase)” value in series [1] (1 mg/kg) worked out at 0.179 h⁻¹; in series [1] (10 mg/kg) it was 0.0812 h⁻¹. Further, the “Alpha-Half Life” value in series [1] (1 mg/kg) was 0.162 days; in [1] (10 mg/kg), 0.3555 days. In addition, the figures for the “B (pre-exponential constant for beta phase)” value in series [1] (1 mg/kg) and in series [1] (10 mg/kg) were 9.82 µg/mL and 113 µg/mL, respectively. The entries for the “Beta (exponential rate constant for beta phase)” value in series [1] (1 mg/kg) and in series [1] (10 mg/kg) were 0.00269 h⁻¹ and 0.00281 h⁻¹, respectively. Further, the “Beta-Half Life” value in [1] (1 mg/kg) is 10.8 days; in series [1] (10 mg/kg) it was 10.3 days. Further, the “Cl (total or systemic clearance)” value in series [1] (1 mg/kg) amounted to 6.46 mL/day/kg; in series [1] (10 mg/kg), 5.83 mL/day/kg. For the same substance, the “MRT (mean residence time)” value in [1] (1 mg/kg) came out at 15.3 days; in series [1] (10 mg/kg), 14.5 days. In addition, the “Volume (volume of central compartment)” value in series [1] (1 mg/kg) and in series [1] (10 mg/kg) was 0.0532 L/kg in each case. The “Vss (steady-state volume of distribution)” value in series [1] (1 mg/kg) stood at 0.099 L/kg; in series [1] (10 mg/kg) it was 0.0845 L/kg. The “volume of distribution at steady state (Vss)” value in [1] (in words) is listed as “very low”. Also, the “Clonogenic Assay with 1.15.1-AE IC50 in ng/mL” value (shortened to “Clonogenic Assay”) is listed as “No effect” in the series with A2058; “Inconclusive” with MEWO; “Inconclusive” in the series with HT144; “Inconclusive” with HEMNLP; “Inconclusive” in the series with M14; “No effect” in the series with LOXIMVI. Further, the “Clonogenic Assay” value is “No effect (repeating)” with MOLT-4; “No effect” with DEL; “No effect (repeating)” in the series on Jurkat; “No effect” in the series on SU-DHL-1; “No growth” in the series with CCRF-CEM; “Inconclusive” with Karpas 299. Also, the “Clonogenic Assay” value is “No effect” with PL-21, “No growth” with SUP-M2 and “No growth” in the series with KG-1.
For “CR011: fully human monoclonal antibody that specifically binds to GPNMB; VH SEQ ID NO: 20, VL SEQ ID NO: 29”, in the series with GPNMB (BiaCore, 1:25 dilution of cell supernatant), the “binding to GPNMB (in words)” value is reported as “strong binding”. Besides, in the series with GPNMB (setting [2]), the dissociation constant (Kd) (commonly the constant that tells how readily two partners part at equilibrium) stood at 52 nM, the “ka” value came out at 16524 M⁻¹ s⁻¹ and the “kd” value came to 0.000855 s⁻¹.

The values are drawn from patent publication US20130244255A1, “ANTIBODIES DIRECTED TO GPNMB AND USES THEREOF” (priority 2006, published 2013).
